According to PMC8257674, “Structural basis of inhibition of a transporter from Staphylococcus aureus, NorC, through a single-domain camelid antibody” (Communications Biology, 2021):

Key:
Conditions in all cases: both partners purified
NorC WT [1] = molecular target: T1, NorC WT (Staphylococcus aureus subsp. aureus COL …); assay: ITC; ICab (200 uM, syringe) titrated into NorC WT (20 uM, cell) with 1 mM TPP in both cell and syringe; 25 °C; 20 mM HEPES pH 7.0, 200 mM NaCl, 4 mM n-decyl-beta-D-maltopyranoside; 16 injections of 2.5 ul; one set of sites model
T1 construct: also called NorC wild-type; source: E. coli C41(DE3), extracted from membranes in DDM, purified (Ni-NTA, SEC in DM)
T1 chain: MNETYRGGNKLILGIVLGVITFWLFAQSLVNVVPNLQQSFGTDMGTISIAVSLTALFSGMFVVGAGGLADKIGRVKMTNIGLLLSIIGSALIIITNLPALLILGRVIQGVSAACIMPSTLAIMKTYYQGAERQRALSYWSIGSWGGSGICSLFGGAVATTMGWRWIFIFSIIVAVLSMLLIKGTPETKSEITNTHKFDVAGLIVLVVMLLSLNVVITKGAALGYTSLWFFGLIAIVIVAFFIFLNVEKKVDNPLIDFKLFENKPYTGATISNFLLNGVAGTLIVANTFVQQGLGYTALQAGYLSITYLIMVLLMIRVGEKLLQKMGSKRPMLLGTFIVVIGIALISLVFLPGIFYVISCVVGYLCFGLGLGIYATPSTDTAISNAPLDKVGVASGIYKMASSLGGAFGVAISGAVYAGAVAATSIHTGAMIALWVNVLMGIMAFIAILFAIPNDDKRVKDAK

NorC WT [2] = molecular target: T1, NorC WT; assay: ITC; ICab (200 uM, syringe) titrated into NorC WT (20 uM, cell); 25 °C; 20 mM HEPES pH 7.0, 200 mM NaCl, 4 mM n-decyl-beta-D-maltopyranoside; one set of sites model
NorC WT (wild-type) [3] = molecular target: T2, NorC WT (wild-type) (Staphylococcus aureus subsp. aureus COL …); assay: ITC; as without TPP+, but in the presence of 1 mM TPP+; 16 injections of 2.5 ul; 25 °C; 20 mM HEPES pH 7.0, 200 mM NaCl, 4 mM DM
T2 construct: not shown: His8, C-terminal, kept
T2 chain: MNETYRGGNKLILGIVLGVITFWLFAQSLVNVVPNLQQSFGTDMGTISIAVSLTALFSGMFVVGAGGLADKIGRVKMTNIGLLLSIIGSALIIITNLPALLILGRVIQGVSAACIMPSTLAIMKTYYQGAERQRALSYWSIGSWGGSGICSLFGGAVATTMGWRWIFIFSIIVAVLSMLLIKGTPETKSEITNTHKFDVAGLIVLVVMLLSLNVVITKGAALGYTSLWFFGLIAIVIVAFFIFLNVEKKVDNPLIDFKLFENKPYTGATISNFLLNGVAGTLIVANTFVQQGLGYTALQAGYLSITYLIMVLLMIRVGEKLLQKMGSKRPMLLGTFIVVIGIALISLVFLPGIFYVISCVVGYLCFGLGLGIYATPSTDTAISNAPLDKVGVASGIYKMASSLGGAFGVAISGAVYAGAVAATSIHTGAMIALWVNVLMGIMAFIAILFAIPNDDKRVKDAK

NorC WT (wild-type) [4] = molecular target: T2, NorC WT (wild-type); assay: MST; 10 nM transporter labelled with red Tris-NTA dye, ICab titrated from 5 uM in twofold dilutions; Monolith NT.115 premium-coated capillaries; single-site binding model
NorC WT (wild-type) [5] = molecular target: T3, NorC WT (wild-type) (Staphylococcus aureus subsp. aureus COL …); assay: ITC; ICab (200 uM) in the syringe titrated into NorC WT (20 uM) in the cell, with 1 mM TPP in both cell and syringe; 25 °C; 20 mM HEPES pH 7.0, 200 mM NaCl, 4 mM n-decyl-beta-D-maltopyranoside; 16 injections of 2.5 ul; one set of sites model
T3 chain: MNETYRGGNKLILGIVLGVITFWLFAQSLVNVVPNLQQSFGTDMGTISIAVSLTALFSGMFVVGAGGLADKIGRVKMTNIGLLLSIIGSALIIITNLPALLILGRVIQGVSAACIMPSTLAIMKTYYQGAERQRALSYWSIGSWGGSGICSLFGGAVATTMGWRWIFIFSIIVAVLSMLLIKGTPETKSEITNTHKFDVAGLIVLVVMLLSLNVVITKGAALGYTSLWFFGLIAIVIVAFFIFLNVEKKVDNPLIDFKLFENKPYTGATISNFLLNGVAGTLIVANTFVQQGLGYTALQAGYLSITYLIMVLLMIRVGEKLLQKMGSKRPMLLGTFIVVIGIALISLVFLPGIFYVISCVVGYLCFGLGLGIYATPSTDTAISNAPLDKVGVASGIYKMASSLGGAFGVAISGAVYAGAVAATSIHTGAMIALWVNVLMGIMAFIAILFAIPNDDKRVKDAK

NorC WT (wild-type) [6] = molecular target: T3, NorC WT (wild-type); assay: ITC; ICab (200 uM) in the syringe titrated into NorC WT (20 uM) in the cell; 25 °C; 20 mM HEPES pH 7.0, 200 mM NaCl, 4 mM n-decyl-beta-D-maltopyranoside; one set of sites model

B1: single-domain Indian camelid antibody (ICab) (VHH)
VHH: QVQLEESGGGSVQAGGSLRLSCAASGYMYSTYSTYCMGWFRQAPGKEREGVAFIKRGDHSTYYTDSVKGRFTISQDSAKNTVSLQMNNLKPEDTAIYYCAADFAHSFLLSVHSGAGQYSYWGQGTQVTVSS
stoichiometry N (NorC WT [1]): 1.14 ± 0.012 | Kd (NorC WT [2]): 0.0466 ± 0.0089 µM | stoichiometry N (NorC WT [2]): 1.04 ± 0.005

B2: Zn2+-bound single-domain Indian camelid antibody (ICab) (VHH)
VHH: QVQLEESGGGSVQAGGSLRLSCAASGYMYSTYSTYCMGWFRQAPGKEREGVAFIKRGDHSTYYTDSVKGRFTISQDSAKNTVSLQMNNLKPEDTAIYYCAADFAHSFLLSVHSGAGQYSYWGQGTQVTVSS
notes: also called single-domain camelid antibody; vhh
Kd (NorC WT (wild-type) [3]): 0.0356 ± 0.016 µM | Kd (NorC WT (wild-type) [4]): 0.0375 ± 0.016 µM

B3: single-domain Indian camelid antibody (ICab) (VHH)
VHH: QVQLEESGGGSVQAGGSLRLSCAASGYMYSTYSTYCMGWFRQAPGKEREGVAFIKRGDHSTYYTDSVKGRFTISQDSAKNTVSLQMNNLKPEDTAIYYCAADFAHSFLLSVHSGAGQYSYWGQGTQVTVSS
notes: also called single-domain camelid antibody
stoichiometry N (NorC WT (wild-type) [5]): 1.14 | Kd (NorC WT (wild-type) [6]): 0.0466 µM | stoichiometry N (NorC WT (wild-type) [6]): 1.04
